Literature values in patent US8536148B2, “Disabling autophagy as a treatment for lysosomal storage diseases” (The United States of America, as Represented by the …, priority 2009, dated 2013).

Test system: Hunter syndrome patients
[1] = from baseline, both dosing regimens

B1: idursulfase: recombinant human I2S produced in a human cell line, approved for Hunter syndrome (protein, UniProt P22304 34-455; P22304 456-550, looked up)
Iduronate 2-sulfatase 42 kDa …: TDALNVLLIIVDDLRPSLGCYGDKLVRSPNIDQLASHSLLFQNAFAQQAVCAPSRVSFLTGRRPDTTRLYDFNSYWRVHAGNFSTIPQYFKENGYVTMSVGKVFHPGISSNHTDDSPYSWSFPPYHPSSEKYENTKTCRGPDGELHANLLCPVDVLDVPEGTLPDKQSTEQAIQLLEKMKTSASPFFLAVGYHKPHIPFRYPKEFQKLYPLENITLAPDPEVPDGLPPVAYNPWMDIRQREDVQALNISVPYGPIPVDFQRKIRQSYFASVSYLDTQVGRLLSALDDLQLANSTIIAFTSDHGWALGEHGEWAKYSNFDVATHVPLIFYVPGRTASLPEAGEKLFPYLDPFDSASQLMEPGRQSMDLVELVSLFPTLAGLAGLQVPPRCPVPSFHVELCREGKNLLKHFRFRDLEEDPYLPG
Iduronate 2-sulfatase 14 kDa …: NPRELIAYSQYPRPSDIPQWNSDKPSLKDIKIMGYSIRTIDYRYTVWVGFNPDEFLANFSDIHAGELYFVDSDPLQDHNMYNDSQGGDLFQLLMP
Liver and spleen volumes [1]: significantly reduced from baseline
Urine GAG excretion [1]: significantly reduced from baseline
Tolerability (human, in vivo): generally well tolerated
Clinical improvement vs placebo (patients with Hunter syndrome): statistically significant improvement rate compared with placebo
